Reference: the Human Domainome abundance scans (Beltran et al. 2025)
± gives the uncertainty stated by the source.

B1: POU domain, class 3, transcription factor 4, residues 280 to 335; numbered along this chain, P49335 (parent)
chain: KKRTSIEVSVKGVLETHFLKCPKPAAQEISSLADSLQLEKEVVRVWFCNRRQKEKR

Variants of: B1
Experiment: abundance fitness (aPCA) (normalised: wild type 0, dead -1); higher = more abundant; growth selection in yeast, the domain comes from the species named
Conditions: Homo sapiens

Which abundance fitness does the source give for KKRTSIEVSVKGVLETHFLKCPKPAAQEISSLADSLQLEKEVVRVWGCNRRQKEKR [F47G] here?
The abundance fitness was -0.745 ± 0.18.

Which abundance fitness does the source give for KKRTSIEVSVKGVLETHFLKCPKPAAQEISSLADSLQLEKEVVRVWCCNRRQKEKR [F47C] here?
Its abundance fitness is -0.792 ± 0.31.

Which abundance fitness does the source give for KKRTSIEVSVKGVLETHFLKCPKPAAQEISSLADSLQLEKEVVRVWKCNRRQKEKR [F47K] here?
The abundance fitness was -1.16 ± 0.36.

With KKRTSIEVSVKGVLETHFLKCPKPAAQEISSLADSLQLEKEVVRVWDCNRRQKEKR [F47D] as the variant, how does the abundance fitness read?
Its abundance fitness is -0.565 ± 0.4.

For KKRTSIEVSVKGVLETHFLKCPKPAAQEISSLADSLQLEKEVVRVWECNRRQKEKR [F47E], which abundance fitness is on record?
The abundance fitness was -0.872 ± 0.23.

With KKRTSIEVSVKGVLETHFLKCPKPAAQEISSLADSLQLEKEVVRVWACNRRQKEKR [F47A] as the variant, how does the abundance fitness read?
The abundance fitness was -0.65 ± 0.17.

For KKRTSIEVSVKGVLETHFLKCPKPAAQEISSLADSLQLEKEVVRVWHCNRRQKEKR [F47H], which abundance fitness is on record?
Its abundance fitness is -0.571 ± 0.38.

Which abundance fitness does the source give for KKRTSIEVSVKGVLETHFLKCPKPAAQEISSLADSLQLEKEVVSVWFCNRRQKEKR [R44S] here?
The abundance fitness was -0.343 ± 0.14.

With KKRTSIEVSVKGVLETHFLKCPKPAAQEISSLADSLQLEKEVVQVWFCNRRQKEKR [R44Q] as the variant, how does the abundance fitness read?
The abundance fitness was -0.074 ± 0.16.

For KKRTSIEVSVKGVLETHFLKCPKPAAQEISSLADSLQLEKEVVPVWFCNRRQKEKR [R44P], which abundance fitness is on record?
Its abundance fitness is -0.865 ± 0.26.

For KKRTSIEVSVKGVLETHFLKCPKPAAQEISSLADSLQLEKEVVTVWFCNRRQKEKR [R44T], which abundance fitness is on record?
The abundance fitness was -0.343 ± 0.16.

For KKRTSIEVSVKGVLETHFLKCPKPAAQEISSLADSLQLEKEVVYVWFCNRRQKEKR [R44Y], which abundance fitness is on record?
Its abundance fitness is -0.643 ± 0.34.

For KKRTSIEVSVKGVLETHFLKCPKPAAQEISSLADSLQLEKEVVVVWFCNRRQKEKR [R44V], which abundance fitness is on record?
The abundance fitness was -0.84 ± 0.16.

With KKRTSIEVSVKGVLETHFLKCPKPAAQEISSLADSLQLEKEVVWVWFCNRRQKEKR [R44W] as the variant, how does the abundance fitness read?
The abundance fitness was -0.68 ± 0.2.

With KKRTSIEVSVKGVLETHFLKCPKPAAQEISSLADSLQLEKEVVRVSFCNRRQKEKR [W46S] as the variant, how does the abundance fitness read?
Its abundance fitness is -0.693 ± 0.21.

Which abundance fitness does the source give for KKRTSIEVSVKGVLETHFLKCPKPAAQEISSLADSLQLEKEVVRVVFCNRRQKEKR [W46V] here?
The abundance fitness was -0.82 ± 0.17.

With KKRTSIEVSVKGVLETHFLKCPKPAAQEISSLADSLQLEKEVVRVAFCNRRQKEKR [W46A] as the variant, how does the abundance fitness read?
The abundance fitness was -0.623 ± 0.15.

Which abundance fitness does the source give for KKRTSIEVSVKGVLETHFLKCPKPAAQEISSLADSLQLEKEVVRVRFCNRRQKEKR [W46R] here?
The abundance fitness was -0.927 ± 0.16.

For KKRTSIEVSVKGVLETHFLKCPKPAAQEISSLADSLQLEKEVVRVQFCNRRQKEKR [W46Q], which abundance fitness is on record?
The abundance fitness was -0.403 ± 0.27.

With KKRTSIEVSVKGVLETHFLKCPKPAAQEISSLADSLQLEKEVVRVPFCNRRQKEKR [W46P] as the variant, how does the abundance fitness read?
The abundance fitness was -0.953 ± 0.29.

Which abundance fitness does the source give for KKRTSIEVSVKGVLETHFLKCPKPAAQEISSLADSLQLEKEVVRVFFCNRRQKEKR [W46F] here?
Its abundance fitness is -1.05 ± 0.34.

For KKRTSIEVSVKGVLETHFLKCPKPAAQEISSLADSLQLEKEVVRVMFCNRRQKEKR [W46M], which abundance fitness is on record?
The abundance fitness was -0.932 ± 0.26.

With KKRTSIEVSVKGVLETHFLKCPKPAAQEISSLADSLQLEKEVVRVTFCNRRQKEKR [W46T] as the variant, how does the abundance fitness read?
The abundance fitness was -0.709 ± 0.19.

For KKRTSIEVSVKGVLETHFLKCPKPAAQEISSLADSLQLEKEVVRVEFCNRRQKEKR [W46E], which abundance fitness is on record?
The abundance fitness was -0.892 ± 0.25.

For KKRTSIEVSVKGVLETHFLKCPKPAAQEISSLADSLQLEKEVVRVKFCNRRQKEKR [W46K], which abundance fitness is on record?
Its abundance fitness is -0.673 ± 0.25.

For KKRTSIEVSVKGVLETHFLKCPKPAAQEISSLADSLQLEKEVVRVHFCNRRQKEKR [W46H], which abundance fitness is on record?
Its abundance fitness is -0.647 ± 0.35.

For KKRTSIEVSVKGVLETHFLKCPKPAAQEISSLADSLQLEKEVVRVGFCNRRQKEKR [W46G], which abundance fitness is on record?
The abundance fitness was -0.639 ± 0.15.

With KKRTSIEVSVKGVLETHFLKCPKPAAQEISSLADSLQLEKEVVRVIFCNRRQKEKR [W46I] as the variant, how does the abundance fitness read?
Its abundance fitness is -0.688 ± 0.25.

For KKRTSIEVSVKGVLETHFLKCPKPAAQEISSLADSLQLEKEVVRVNFCNRRQKEKR [W46N], which abundance fitness is on record?
Its abundance fitness is -0.816 ± 0.29.

With KKRTSIEVSVKGVLETHFLKCPKPAAQEISSLADSLQLEKEVVRRWFCNRRQKEKR [V45R] as the variant, how does the abundance fitness read?
Its abundance fitness is -0.062 ± 0.13.

With KKRTSIEVSVKGVLETHFLKCPKPAAQEISSLADSLQLEKEVVRYWFCNRRQKEKR [V45Y] as the variant, how does the abundance fitness read?
The abundance fitness was -0.372 ± 0.25.

For KKRTSIEVSVKGVLETHFLKCPKPAAQEISSLADSLQLEKEVVRFWFCNRRQKEKR [V45F], which abundance fitness is on record?
Its abundance fitness is -0.517 ± 0.37.

Which abundance fitness does the source give for KKRTSIEVSVKGVLETHFLKCPKPAAQEISSLADSLQLEKEVVREWFCNRRQKEKR [V45E] here?
The abundance fitness was 0.193 ± 0.14.

With KKRTSIEVSVKGVLETHFLKCPKPAAQEISSLADSLQLEKEVVRNWFCNRRQKEKR [V45N] as the variant, how does the abundance fitness read?
Its abundance fitness is 0.373 ± 0.17.

For KKRTSIEVSVKGVLETHFLKCPKPAAQEISSLADSLQLEKEVVRGWFCNRRQKEKR [V45G], which abundance fitness is on record?
The abundance fitness was -0.25 ± 0.14.

Which abundance fitness does the source give for KKRTSIEVSVKGVLETHFLKCPKPAAQEISSLADSLQLEKEVVRHWFCNRRQKEKR [V45H] here?
Its abundance fitness is -0.077 ± 0.26.

With KKRTSIEVSVKGVLETHFLKCPKPAAQEISSLADSLQLEKEVVRIWFCNRRQKEKR [V45I] as the variant, how does the abundance fitness read?
The abundance fitness was -0.527 ± 0.34.

Which abundance fitness does the source give for KKRTSIEVSVKGVLETHFLKCPKPAAQEISSLADSLQLEKEVVRWWFCNRRQKEKR [V45W] here?
The abundance fitness was -0.337 ± 0.18.

Which abundance fitness does the source give for KKRTSIEVSVKGVLETHFLKCPKPAAQEISSLADSLQLEKEVVRKWFCNRRQKEKR [V45K] here?
The abundance fitness was 0.165 ± 0.18.

For KKRTSIEVSVKGVLETHFLKCPKPAAQEISSLADSLQLEKEVVRAWFCNRRQKEKR [V45A], which abundance fitness is on record?
The abundance fitness was 0.085 ± 0.12.

Which abundance fitness does the source give for KKRTSIEVSVKGVLETHFLKCPKPAAQEISSLADSLQLEKEVVRSWFCNRRQKEKR [V45S] here?
Its abundance fitness is 0.097 ± 0.15.

Which abundance fitness does the source give for KKRTSIEVSVKGVLETHFLKCPKPAAQEISSLADSLQLEKEVVRQWFCNRRQKEKR [V45Q] here?
The abundance fitness was 0.156 ± 0.14.

With KKRTSIEVSVKGVLETHFLKCPKPAAQEISSLADSLQLEKEVVRPWFCNRRQKEKR [V45P] as the variant, how does the abundance fitness read?
Its abundance fitness is -0.38 ± 0.2.

With KKRTSIEVSVKGVLETHFLKCPKPAAQEISSLADSLQLEKEVVRLWFCNRRQKEKR [V45L] as the variant, how does the abundance fitness read?
The abundance fitness was 0.052 ± 0.12.

With KKRTSIEVSVKGVLETHFLKCPKPAAQEISSLADSLQLEKEVVRCWFCNRRQKEKR [V45C] as the variant, how does the abundance fitness read?
The abundance fitness was -0.243 ± 0.36.

Which abundance fitness does the source give for KKRTSIEVSVKGVLETHFLKCPKPAAQEISSLADSLQLEKEVVRTWFCNRRQKEKR [V45T] here?
Its abundance fitness is 0.307 ± 0.15.

Which abundance fitness does the source give for KKRTSIEVSVKGVLETHFLKCPKPAAQEISSLADSLQLEKEVVRMWFCNRRQKEKR [V45M] here?
Its abundance fitness is -0.041 ± 0.26.
